According to patent US6951917:

Biological target: HLA-DR on 1088-EBV cells (autologous EBV-B cells of patient 1088) (human)
Assay: cell-based or functional assay

B1: monoclonal antibody L243 (anti-HLA-DR; IgG2a) (antibody, from another filing, V domains shown)
VH: QIQLVQSGPELKKPGETVKISCKASGFTFTNYGMNWVKQAPGKGLKWMGWINTYTREPTYADDFKGRFAFSLETSASTAYLQINNLKNEDTAKYFCARDITAVVPTGFDYWGQGTTLTVSS
VL: DIQMTQSPASLSVSVGETVTITCRASENIYSNLAWYRQKQGKSPQLLVFAASNLADGVPSRFSGSGSGTQYSLKINSLQSEDFGDYYCQHFWTTPWAFGGGTNLEIKR
  inhibition of GM-CSF secretion by CD4+ TIL 1088 stimulated with 1088-EBV pulsed with autologous melanoma lysate (mAb 23 ug/ml): 96%
